Experimental data reported in patent US5462743A, “Substance transfer system for topical application” (Medipro Sciences Limited, priority 1993, dated 1995).
Values joined by “and” are separate entries in the source; they are usually repeats but may differ in a detail not shown here. Equal values may be shown once.

Experiments:
cancerous body cells = settings: subsequently converted into protoporphyrin IX; cited from earlier work
[1] = In vitro permeation through intact skin, patch of FIGS. 14 and 15 (Example 6); type: in vitro ADME, Hairless Guinea Pig
Procedure: (§1) The wells were filled with porous plastic.
In addition to the transdermal patches using porous plastic depots as described in Example 5, patches containing fibrous depots were also tested. The fibrous depots, also measured 3 mm in length were cut from an aligned bonded cellulose acetate rod, 3 mm in diameter (R14236 from American Filtrona Co.).

[2] = In vitro skin permeation, patch of FIG. 3 (Example 4); type: in vitro ADME, Hairless Guinea Pig; settings: porous plastic depots
Description: […] […] Duplicate samples of each test compound were run.
skin compatible adhesive, H-566 coated onto a white polyethylene closed cell foam, 0.8 mm thick (Dermaflex PEF 32-W H-566 from Flexcon Company, Inc.) was used, perforated with an array of 69 cylindrical channels approximately 0.84 mm in diameter;
the channels were not lined; instead they were filled with cylindrical sections of porous plastic material (Hydrophilic HDPE with medium pore size, NO. X-4899, Porex Technologies);
the silicone sealant was absent; a reservoir support layer consisting of 1.6 mm thick sheet of porous plastic material, 2.0 cm in diameter (Hydrophilic HDPE with coarse pore size, NO. X-4916, Porex Technologies) was placed directly above the array of 69 channels;
Some variability in results, as between attempted duplicates, was observed, largely attributable to uncertain intimate contact between the reservoir and the skin contacting matrices.

[3] = In vitro skin permeation, patch of FIG. 2 (Example 1); settings: compromised skin, 37° C, contact area 0.21 cm^2, about 1 mg loaded, less than ideal intimate contact
Description: (§2) The skin penetration of model compounds from a transdermal patch constructed according to FIG. 2 was established in vitro by a permeation study. […] The array measured 1.7×1.7 cm and was centrally located. […] On this outer surface of the adhesive layer, but between the slightly protruding silicone tubing was cast a 30% solution of silicone sealant in hexane. The channels were filled with filaments of open cell polyurethane foam. On top of the dry silicone layer was placed a reservoir support layer consisting of a 1.5 mm thick sheet of the same open-cell polyurethane foam, 2.0 cm in diameter. The outer, barrier layer of the patch was a 3.5 cm diameter section of DERMAFLEX V-300-F FLESH (vinyl coated with a medical grade acrylic adhesive, FLEXCON Company). The reservoir and channels of the patch were loaded with a solution which contained a fluorescently labelled model compound (polypeptides or polysaccharide). […] The sections of modified skin (stratum corneum removed) were excised from the Hairless Guinea Pig and mounted on the diffusion cell above a solution of isotonic saline such that the dermal side of skin was in contact with the magnetically stirred receptor liquid. The device was brought into intimate contact with the epidermal surface of the skin. The effective contact area of the solution with the skin through the channels was 0.21 cm^2. […]

[4] = In vitro skin permeation, patch of FIGS. 14 and 15, liquid reservoir (Example 5); type: in vitro ADME, Hairless Guinea Pig; settings: porous plastic depots, contact area 1.1 cm^2
[5] = In vitro skin permeation, patch of FIGS. 14 and 15, dried drug matrix (Example 7); type: in vitro ADME, Hairless Guinea Pig; settings: freeze dried depots, porous plastic matrix
Description: as §1
The drug depots were hydrated with a suitable solubilizing solution just before the start of the permeation study, as illustrated in FIG. 6.

[6] = in vivo; cited from earlier work
[7] = In vitro skin permeation, patch of FIG. 2 with H566 adhesive (Example 2); settings: compromised skin, approximately 1 mg loaded, intimate contact maintained
Description: as §2

[8] = in the bloodstream; cited from earlier work

In the case of NCC(=O)CCC(=O)O [5-aminolevulinic acid], the “absorption by cancerous body cells” value (cancerous body cells) is given as “preferentially absorbed by cancerous body cells”.

In the case of C[C@]12CC[C@@H]3c4ccc(O)cc4CC[C@H]3[C@@H]1CC[C@@H]2O [Estradiol, estradiol], the “Amount Permeated (Cumulative)” value ([1]; fibrous matrix, 8 hrs) is reported as 0.19 Micrograms and 0.34 Micrograms, the “Amount Permeated (Cumulative)” value ([1]; fibrous matrix, 24 hrs) is reported as 1.74 Micrograms and 2.93 Micrograms and the “Amount Permeated (Cumulative)” value ([1]; fibrous matrix, 48 hrs) is reported as 2.99 Micrograms and 4.83 Micrograms. For the same compound, the “Amount Permeated (Cumulative)” value ([1]; porous plastic matrix, 8 hrs) was 1.01 Micrograms and 1.03 Micrograms, the “Amount Permeated (Cumulative)” value ([1]; porous plastic matrix, 24 hrs) was 6.14 Micrograms and 6.87 Micrograms and the “Amount Permeated (Cumulative)” value ([1]; porous plastic matrix, 48 hrs) was 9.90 Micrograms and 10.69 Micrograms.

For Casein, the “Amount Permeated in 20 Hrs.” value [2] was 75.98 Micrograms and 104.98 Micrograms and the “Amount Permeated in 20 Hrs.” value [3] was 0.05 Micrograms and 0.03 Micrograms.

In the case of “Cytochrome C: carbon-14 labelled model compound, polypeptide, 12,300, from horse heart”, the “Amount Permeated (Cumulated)” value ([4]; 4 hrs) is reported as 117.8 micrograms and 103.4 micrograms, the “Amount Permeated (Cumulated)” value ([4]; 8 hrs) is reported as 257.5 micrograms and 239.8 micrograms and the “Amount Permeated (Cumulated)” value ([4]; 24 hrs) is reported as 581.6 micrograms and 572.6 micrograms. For the same compound, the “Amount Permeated (Cumulated)” value ([4]; 48 hrs) was 740.0 micrograms and 728.3 micrograms, the “Amount Permeated (Cumulative)” value ([5]; 4 hrs) was 40.4 Micrograms and the “Amount Permeated (Cumulative)” value ([5]; 8 hrs) was 124.2 Micrograms and 119.9 Micrograms. For the same compound, the “Amount Permeated (Cumulative)” value ([5]; 24 hrs) was 412.6 Micrograms and 363.1 Micrograms and the “Amount Permeated (Cumulative)” value ([5]; 48 hrs) was 642.7 Micrograms and 560.6 Micrograms.

In the case of Hyaluronic acid [HA], the “accumulation in HA-depleted areas” value [6] is given as “preferentially accumulates in these depleted areas”.

With Insulin the “Amount Permeated in 20 Hrs.” value [7] was 10.85 Micrograms and 8.30 Micrograms, the “Amount Permeated in 20 Hrs.” value [2] was 41.96 Micrograms and 22.78 Micrograms and the “Amount Permeated in 20 Hrs.” value [3] was 0.04 Micrograms and 0.05 Micrograms.

In the case of “human growth hormone: polypeptide drug, human growth hormone (22,000 daltons)”, the half-life [8] is given as “less than 25 minutes”.

In the case of “parathyroid hormone: polypeptide drug, parathyroid hormone (9,500 daltons)”, the half-life [8] is given as “less than 15 minutes”.
